Test results published in paper PMC9365787, “Molecular basis of MHC I quality control in the peptide loading complex” (Nature Communications, 2022).

T1: ERp57 (human (endogenous in Raji), UniProt P30101 25-505, disulfide from Cys33 to Cys95 of tapasin)
T1 construct: also called disulfide isomerase ERp57; source: endogenous, Raji (Burkitt's lymphoma) cells, solubilised in GDN; purified within the PLC by ICP47^SBP and reconstituted in MSP2N2 nanodiscs
T1 sequence (looked up): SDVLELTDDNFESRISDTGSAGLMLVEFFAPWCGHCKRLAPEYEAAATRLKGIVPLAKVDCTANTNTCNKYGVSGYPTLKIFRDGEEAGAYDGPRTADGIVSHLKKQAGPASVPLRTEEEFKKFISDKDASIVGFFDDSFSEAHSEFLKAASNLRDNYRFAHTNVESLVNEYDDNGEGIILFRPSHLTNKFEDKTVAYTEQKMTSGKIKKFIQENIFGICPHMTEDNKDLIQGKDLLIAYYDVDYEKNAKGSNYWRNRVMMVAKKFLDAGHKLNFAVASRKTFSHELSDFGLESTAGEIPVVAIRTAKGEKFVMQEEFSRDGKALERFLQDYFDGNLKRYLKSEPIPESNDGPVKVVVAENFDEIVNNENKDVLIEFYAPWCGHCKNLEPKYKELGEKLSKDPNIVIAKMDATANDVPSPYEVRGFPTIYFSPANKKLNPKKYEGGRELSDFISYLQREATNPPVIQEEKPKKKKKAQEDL

B1: tapasin (natural protein, human (endogenous in Raji), UniProt O15533 21-448, looked up)
chain: GPAVIECWFVEDASGKGLAKRPGALLLRQGPGEPPPRPDLDPELYLSVHDPAGALQAAFRRYPRGAPAPHCEMSRFVPLPASAKWASGLTPAQNCPRALDGAWLMVSISSPVLSLSSLLRPQPEPQQEPVLITMATVVLTVLTHTPAPRVRLGQDALLDLSFAYMPPTSEAASSLAPGPPPFGLEWRRQHLGKGHLLLAATPGLNGQMPAAQEGAVAFAAWDDDEPWGPWTGNGTFWLPTVQPFQEGTYLATIHLPYLQGQVTLELAVYKPPKVSLMPATLARAAPGEAPPELLCLVSHFYPSGGLEVEWELRGGPGGRSQKAEGQRWLSALRHHSDGSVSLSGHLQPPPVTTEQHGARYACRIHHPSLPASGRSAEVTLEVAGLSGPSLEDSVGLFLSAFLLLGLFKALGWAAVYLSTCKDSKKKAE
modifications: N-glycan at Asn233 (Man9-0GlcNAc2-1, heterogeneous); disulfide from Cys95 to Cys33 of ERp57
notes: source: endogenous, Raji (Burkitt's lymphoma) cells, solubilised in GDN; purified within the PLC by ICP47^SBP and reconstituted in MSP2N2 nanodiscs
B2: calreticulin (natural protein, human (endogenous in Raji), UniProt P27797 18-417, looked up)
chain: EPAVYFKEQFLDGDGWTSRWIESKHKSDFGKFVLSSGKFYGDEEKDKGLQTSQDARFYALSASFEPFSNKGQTLVVQFTVKHEQNIDCGGGYVKLFPNSLDQTDMHGDSEYNIMFGPDICGPGTKKVHVIFNYKGKNVLINKDIRCKDDEFTHLYTLIVRPDNTYEVKIDNSQVESGSLEDDWDFLPPKKIKDPDASKPEDWDERAKIDDPTDSKPEDWDKPEHIPDPDAKKPEDWDEEMDGEWEPPVIQNPEYKGEWKPRQIDNPDYKGTWIHPEIDNPEYSPDPSIYAYDNFGVLGLDLWQVKSGTIFDNFLITNDEAYAEEFGNETWGVTKAAEKQMKDKQDEEQRLKEEEEDKKRKEEEEAEDKEDDEDKDEDEEDEEDKEEDEEEDVPGQAKDEL
notes: as for B1

Assays:
[1] = target: T1, ERp57; assay: cryo-EM structure; PLC::MSP2N2 (1.8 mg/ml, 2.5 µM) in lipid nanodiscs without chemical fixation; focused refinement on the fully assembled editing module, 3.7 Å; details: both partners purified
[2] = target: B1; assay: as above; details: both partners purified

| binding result [1] | binding result [2] | Binder |
| --- | --- | --- |
| binds |  | B1 |
|  | binds | B2 |
